Values quoted from earlier work, collected in paper PMC4317646.
pKd: −log10 of the molar value.

Target: ADP-G-actin (Saccharomyces cerevisiae) (UniProt P60010)

Sequence of C-Srv2 C-terminal half (P17555 253-526): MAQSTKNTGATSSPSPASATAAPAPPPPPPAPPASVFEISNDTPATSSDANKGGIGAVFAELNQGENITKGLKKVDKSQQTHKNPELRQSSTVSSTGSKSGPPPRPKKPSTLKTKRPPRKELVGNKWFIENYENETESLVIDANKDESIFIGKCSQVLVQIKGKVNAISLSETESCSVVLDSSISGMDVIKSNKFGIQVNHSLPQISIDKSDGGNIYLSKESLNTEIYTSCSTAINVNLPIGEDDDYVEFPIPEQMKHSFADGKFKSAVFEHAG

pKd: 7.74
Substance: C-Srv2 C-terminal half (from UniProt P17555)
